{"source": "paper doi:10.1101/2021.02.05.428650", "about": "(bioRxiv, 2021)", "molecular_target": "the molecule itself", "experiment": "SDS-PAGE and Western blot after detergent removal", "note": "“And” between values parts separate entries of the source, which are not always exact repeats. Equal entries are not always repeated."}
{"protein": "MIELSLIDFYLCFLAFLLFLVLIMLIIFWFSLELQDHNETCHA (natural protein)", "note": "[ORF7b from SARS-CoV-2]", "values": [{"measurement": "stoichiometry N", "result": "≤ 10 and 5"}]}
